Laboratory results as given in patent US20240150451A1 (Janssen / Centocor, published 2024).
Substitutions are numbered along the chain they refer to.

T1: Tau peptide Start 3 Stop 22 (Synthetic linear peptide immobilised on a Pepscan array; the attachment to the array cannot be carried by the letters.)
T1 peptide: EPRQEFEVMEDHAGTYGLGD

T2: Tau peptide Start 411 Stop 430
T2 peptide: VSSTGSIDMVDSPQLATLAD

T3: Tau peptide Start 422 Stop 441
T3 peptide: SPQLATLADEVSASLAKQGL

T4: Tau peptide Start 415 Stop 434
T4 peptide: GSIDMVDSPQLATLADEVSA

T5: Tau peptide Start 421 Stop 440
T5 peptide: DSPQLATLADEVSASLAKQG

T6: Tau peptide Start 417 Stop 436
T6 peptide: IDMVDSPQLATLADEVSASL

T7: Tau peptide Start 419 Stop 438
T7 peptide: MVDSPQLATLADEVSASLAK

T8: Tau peptide Start 413 Stop 432
T8 peptide: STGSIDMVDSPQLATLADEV

B1: PT53 monoclonal antibody (recombinant, mouse IgG2a/kappa) (antibody, V domains shown)
VH: EVKLMESGGGLVQPGASLRLSCAASGFTFTDYYMSWVRQPPGKAPEWLALIRNKANGYTTKYAASVKGRFTISRDNSQNILYLQMNTLRAEDSATYYCVKAVWFAYWGQGTLVTVSA
VL: DIVITQDELSNPVTSGESVSISCRSSKSLLYKDGKTYLNWFLQRPGQSPQLLIYLMSTRASGVSDRFSGSGSGTDFTLEISRVKAEDVGVYYCLQLVEYPYTFGGGTKLEIKR
notes: also called PT50/PT53
B2: PT81 monoclonal antibody (recombinant, mouse IgG2a/kappa) (antibody, V domains shown)
VH: QVQLQQPGAELVRPGASVILSCKASGYTFTNSWIHWVKQRPGRVLEWIGRIDPNSGGTRYNENFKSKATLTVDKPSSTAYMQLSSLTSEDSAVYFCSRGVLHDYWGQGTTLTVSS
VL: B1 VL with G69V, K84Q, L94Q

Columns and labels:
[1] = target: T1, Tau peptide Start 3 Stop 22; experiment: Pepscan ELISA on an array of linear 20-mer Tau 441 peptides; design: peptide ELISA signal (no name or unit printed): unit not given here
Description: (§1) An amino functionalized polypropylene support was obtained by grafting with a proprietary hydrophilic polymer formulation, followed by reaction with t-butyloxycarbonyl-hexamethylenediamine (BocHMDA) using dicyclohexylcarbodiimide (DCC) with N-hydroxybenzotriazole (HOBt), and subsequent cleavage of the Boc-groups using trifluoroacetic acid (TFA). Standard Fmoc-peptide synthesis was used to synthesize peptides on the amino-functionalized solid support by custom modified JANUS liquid handling stations (Perkin Elmer). Synthesis of structural mimics was done using Pepscan's proprietary Chemically Linked Peptides on Scaffolds (CLIPS) technology. CLIPS technology allows to structure peptides into single loops, double loops, triple loops, sheet-like folds, helix-like folds, and combinations thereof. CLIPS templates are coupled to cysteine residues. The side-chains of multiple cysteines in the peptides are coupled to one or two CLIPS templates. For example, a 0.5 mM solution of the P2 CLIPS (2,6-bis(bromomethyl)pyridine) is dissolved in ammonium bicarbonate (20 mM, pH 7.8)/acetonitrile (1:3 (v/v)). This solution is added onto the peptide arrays. The CLIPS template will bind to side-chains of two cysteines as present in the solid-phase bound peptides of the peptide-arrays (455 wells plate with 3 μl wells). The peptide arrays are gently shaken in the solution for 30 to 60 minutes while completely covered in solution. Finally, the peptide arrays are washed extensively with excess of H₂O and sonicated in disrupt-buffer containing 1% SDS/0.1% beta-mercaptoethanol in PBS (pH 7.2) at 70° C. for 30 minutes, followed by sonication in H₂O for another 45 minutes. The T3 CLIPS carrying peptides were made in a similar way but now with three cysteines.
(§2) The binding of antibodies (recombinantly expressed as IgG2a) to each of the synthesized peptides was tested in a pepscan-based ELISA. The peptide arrays were incubated with primary antibody solution (overnight at 4° C.). After washing, the peptide arrays were incubated with a 1/1000 dilution of an appropriate antibody peroxidase conjugate (SBA; Table 4) for one hour at 25° C. After washing, the peroxidase substrate 2,2′-azino-di-3-ethylbenzthiazoline sulfonate (ABTS) and 20 μl/ml of 3 percent H₂O₂ were added. After one hour, the color development was measured.

[2] = target: T2, Tau peptide Start 411 Stop 430; experiment: as above; design: peptide ELISA signal (no name or unit printed): unit not given here
Description: as §1, §2

[3] = target: T3, Tau peptide Start 422 Stop 441; experiment: as above; design: peptide ELISA signal (no name or unit printed): unit not given here
Description: as §1, §2

[4] = target: T4, Tau peptide Start 415 Stop 434; experiment: as above; design: peptide ELISA signal (no name or unit printed): unit not given here
Description: as §1, §2

[5] = target: T5, Tau peptide Start 421 Stop 440; experiment: as above; design: peptide ELISA signal (no name or unit printed): unit not given here
Description: as §1, §2

[6] = target: T6, Tau peptide Start 417 Stop 436; experiment: as above; design: peptide ELISA signal (no name or unit printed): unit not given here
Description: as §1, §2

[7] = target: T7, Tau peptide Start 419 Stop 438; experiment: as above; design: peptide ELISA signal (no name or unit printed): unit not given here
Description: as §1, §2

[8] = target: Tau peptide Start 1 Stop 20 (Synthetic linear peptide immobilised on a Pepscan array; the attachment to the array cannot be carried by the letters.); experiment: as above; design: peptide ELISA signal (no name or unit printed): unit not given here
Description: as §1, §2

[9] = target: T8, Tau peptide Start 413 Stop 432; experiment: as above; design: peptide ELISA signal (no name or unit printed): unit not given here
Description: as §1, §2

[10] = target: T9, recombinant full-length tau 2N4R (control tau) (human, UniProt P10636 2-758); experiment: direct ELISA, 10 ng/well coated control tau, hybridoma screening
T9 construct: also called recombinant WT (2N4R) tau; Rec; Tau
Experimental: Obtained hybridomas were seeded in 96-well plates and screened after 10 days in a direct ELISA on 25 ng/well coated PHF-tau as described below. Positive cells were tested for cross-reactivity on 10 ng/well coated with control tau (SEQ ID NO: 51) expressed in E. Coli BL21 cells and purified by heat treatment and ammonium sulphate precipitation. […] PT/66, PT/69 and hTau/60 were prioritized for V-region cloning and humanization.

Sequence of Tau peptide Start 1 Stop 20 (Synthetic linear peptide immobilised on a Pepscan array; the attachment to the array cannot be carried by the letters.) (peptide, as listed by the source limits assumed): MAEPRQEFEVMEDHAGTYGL

| Binder | peptide ELISA signal (no name or unit printed) [1] | peptide ELISA signal (no name or unit printed) [2] | peptide ELISA signal (no name or unit printed) [3] | binding result [4] | peptide ELISA signal (no name or unit printed) [4] | peptide ELISA signal (no name or unit printed) [5] | peptide ELISA signal (no name or unit printed) [6] | peptide ELISA signal (no name or unit printed) [7] | peptide ELISA signal (no name or unit printed) [8] | binding result [9] | peptide ELISA signal (no name or unit printed) [9] | binding result [10] |
| --- | --- | --- | --- | --- | --- | --- | --- | --- | --- | --- | --- | --- |
| B1 | 44 | 29 | 2930 | no binding | 40 | 2880 | 637 | 2090 | 38 | no binding | 38 | binds |
| B2 | 45 | 31 | 2920 | no binding | 78 | 2900 | 2800 | 2900 | 43 | no binding | 30 | binds |
